Results: publication PMC7872222

Molecular target: biotinylated FYCO1 peptide (human)
Assay: BLI

Substance: GABARAP (from UniProt O95166 1-117) (natural protein)
- Kd: 1400 nM
